The values that follow come from PMC12852032.

For assay [1], the target named is recombinant rat C2 (rat). The assay is described as follows: Meso Scale Discovery (electrochemiluminescence plate binding assay); rat C2 coated on the plate; serial dilutions of antibody; binding and washing at pH 7.4; detection with Sulfo-tag goat anti-human IgG.
Assay [2] has as its target recombinant rat C2 (rat). The assay is described as follows: Meso Scale Discovery (electrochemiluminescence plate binding assay); rat C2 coated on the plate; serial dilutions of antibody; binding and washing at pH 7.4 + 1.25 mM Ca2+.

B1: empasiprubart (antibody, V domains shown)
VH: EVQLVQSGAEVKKPGASVKVSCKASGYTFTDYNMDWVRQATGQGLEWIGDINPNYESTGYNQKFKGRATMTVDKSISTAYMELSSLRSEDTAVYYCAREDDHDAFAYWGQGTLVTVSS
VL: DNVLTQSPDSLAVSLGERATISCRASKSVRTSGYNYMHWYQQKPGQPPKLLIYLASNLKSGVPDRFSGSGSGTDFTLTISSLQAEDAATYYCQHSRELPYTFGQGTKLEIK
Regarding B1, the maximum MSD signal was determined as 12000 in assay [1] and 24700 in assay [2].
